The conditions of this series: Equus caballus, pH 6, 25 °C, Absorbance, cacodylate 0.03 M, reversible: yes.

“And” between values parts separate entries of the source, which are not always exact repeats. Equal values may be shown once.

Sequence of Cytochrome c wild type, P00004 (P00004 whole entry): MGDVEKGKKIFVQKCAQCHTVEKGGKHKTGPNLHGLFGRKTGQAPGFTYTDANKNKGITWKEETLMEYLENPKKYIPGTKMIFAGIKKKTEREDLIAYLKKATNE

As to Cytochrome c wild type, P00004, for the setting “GdnHCl, KCl 0.1-1.0 M”, the denaturant m value was found to be 3.31 kcal/mol/M, the “denaturant midpoint (higher = more stable)” value amounted to 2.47 M and the unfolding free energy worked out at 8.18 kcal/mol. For the setting “Urea, KCl 0.1-1.0 M”, the denaturant m value stood at 1.28 kcal/mol/M, the “denaturant midpoint (higher = more stable)” value worked out at 6.26 M and the unfolding free energy worked out at 8.02 kcal/mol. Also, the denaturant m value (Urea, KCl 0.1 M) was 1.25 kcal/mol/M and 1.37 kcal/mol/M.

These data come from FireProtDB (doi:10.1021/bi982078m).
